Measurements taken from patent publication US20200317779A1.

Experiments:
[1] = molecular target: recombinant cynomolgus monkey CD3ε/δ heterodimer (cynomolgus monkey) (UniProt Q95LI5); assay: ELISA, coated CD3ε/δ
[2] = molecular target: recombinant human CD3ε/δ heterodimer (human) (UniProt P07766); assay: ELISA, coated CD3ε/δ
Chain of recombinant human CD3ε/δ heterodimer (human) (P07766 23-126, stated change not applied, chain 1 of 2): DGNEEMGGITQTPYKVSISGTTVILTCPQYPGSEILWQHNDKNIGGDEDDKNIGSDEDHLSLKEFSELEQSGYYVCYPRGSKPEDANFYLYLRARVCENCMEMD
Chain of recombinant human CD3ε/δ heterodimer (human) (P04234 22-105, stated change not applied, chain 2 of 2, further chain): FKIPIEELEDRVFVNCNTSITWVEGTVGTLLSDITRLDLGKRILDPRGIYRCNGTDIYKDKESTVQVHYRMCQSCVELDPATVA

Chain of recombinant cynomolgus monkey CD3ε/δ heterodimer (cynomolgus monkey) (Q95LI5 22-117, stated change not applied, chain 1 of 2): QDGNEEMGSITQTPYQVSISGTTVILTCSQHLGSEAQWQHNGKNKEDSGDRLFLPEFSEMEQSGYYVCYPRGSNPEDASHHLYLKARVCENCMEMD
Chain of recombinant cynomolgus monkey CD3ε/δ heterodimer (cynomolgus monkey) (Q95LI8 22-105, stated change not applied, chain 2 of 2, further chain): as the sequence (P04234 22-105, stated change not applied, chain 2 of 2, further chain) above, with I5V, N15K, I20V, S32T, D33N, I34N, T64A, S74N, V83L counted along it

Absorbance (450 nm) [1] | Absorbance (450 nm) [2] | Binder
0.086 | 0.118 | F01 (antibody, human IgG1, lambda, L234A L235A, V domains shown) VH: EVQLVESGGGLVQPGGSLKLSCAASGFTFNTYAMNWVRQASGKGLEWVARIRSKYNNYATYYADSVKDRFTISRDDSKNTLYLQMNSLKTEDTAVYYCVRHGNFGNSYVSWFAYWGQGTLVTVSS VL: QAVVTQEPSLTVSPGGTVTLTCRSSTGAVTTSNYANWFQQKPGQAPRTLIYGTNKRAPWTPARFSGSLLGGKAALTLSGAQPEDEAEYYCALWYSNLWVFGGGTKLTVLG
0.084 | 0.099 | F09 (antibody, human IgG1, lambda, L234A L235A, V domains shown) VH: EVQLVESGGGLVQPGGSLKLSCAASGFTFNTYAMNWVRQASGKGLEWVARIRSKYNNYATYYADSVKDRFTISRDDSKNTLYLQMNSLKTEDTAVYYCVRHGNFGNSYVSWFAYWGQGTLVTVSS VL: QAVVTQEPSLTVSPGGTVTLTCRSSTGAVTTSNYANWVQQKPGQAPRTLIYGTNKRAPWTPARFSGSLLGGKAALTLSGAQPEDEAEYYCALWYSNLWVFGGGTKLTVLG
0.163 | 0.133 | F07 (antibody, human IgG1, lambda, L234A L235A, V domains shown) VH: EVQLVESGGGLVQPGGSLKLSCAASGFTFNTYAMNWVRQASGKGLEWVARIRSKYNNYATYYADSVKDRFTISRDDSKNTLYLQMNSLKTEDTAVYYCVRHGNFGNSYVSWFAYWGQGTLVTVSS VL: QAVVTQEPSLTVSPGGTVTLTCRSSTGAVTTSNYANWFQQKPGQAPRGLIGGTNKRAPWTPARFSGSLLGGKAALTLSGAQPEDEAEYYCALWYSNLWVFGGGTKLTVLG
0.096 | 0.115 | F06 (antibody, human IgG1, lambda, L234A L235A, V domains shown) VH: EVQLVESGGGLVQPGGSLKLSCAASGFTFNTYAMNWVRQASGKGLEWVARIRSKYNNYATYYADSVKDRFTISRDDSKNTLYLQMNSLKTEDTAVYYCVRHGNFGNSYVSWFAYWGQGTLVTVSS VL: QAVVTQEPSLTVSPGGTVTLTCRSSTGAVTTSNYANWFQQKPGQAPRGLIYGTNKRAPWTPARFSGSLLGDKAALTLSGAQPEDEAEYYCALWYSNLWVFGGGTKLTVLG
0.075 | 0.105 | F05 (antibody, human IgG1, lambda, L234A L235A, V domains shown) VH: EVQLVESGGGLVQPGGSLKLSCAASGFTFNTYAMNWVRQASGKGLEWVARIRSKYNNYATYYADSVKDRFTISRDDSKNTLYLQMNSLKTEDTAVYYCVRHGNFGNSYVSWFAYWGQGTLVTVSS VL: QAVVTQEPSLTVSPGGTVTLTCRSSTGAVTTSNYANWFQQKPGQAPRGLIYGTNKRAPWTPARFSGSLLGGKAALTLSGAQPEDEAEYYCALWYSNLWVFGGGTKLTVLG
0.18 | 0.134 | F08 (antibody, human IgG1, lambda, L234A L235A, V domains shown) VH: EVQLVESGGGLVQPGGSLKLSCAASGFTFNTYAMNWVRQASGKGLEWVARIRSKYNNYATYYADSVKDRFTISRDDSKNTLYLQMNSLKTEDTAVYYCVRHGNFGNSYVSWFAYWGQGTLVTVSS VL: QAVVTQEPSLTVSPGGTVTLTCRSSTGAVTTSNYANWFQQKPGQAPRGLIGGTNKRAPWTPARFSGSLLGDKAALTLSGAQPEDEAEYYCALWYSNLWVFGGGTKLTVLG
0.101 | 0.128 | F03 (antibody, human IgG1, lambda, L234A L235A, V domains shown) VH: EVQLVESGGGLVQPGGSLKLSCAASGFTFNTYAMNWVRQASGKGLEWVARIRSKYNNYATYYADSVKDRFTISRDDSKNTLYLQMNSLKTEDTAVYYCVRHGNFGNSYVSWFAYWGQGTLVTVSS VL: QAVVTQEPSLTVSPGGTVTLTCRSSTGAVTTSNYANWFQQKPGQAPRTLIGGTNKRAPWTPARFSGSLLGGKAALTLSGAQPEDEAEYYCALWYSNLWVFGGGTKLTVLG
0.091 | 0.118 | F10 (antibody, human IgG1, lambda, L234A L235A, V domains shown) VH: EVQLVESGGGLVQPGGSLKLSCAASGFTFNTYAMNWVRQASGKGLEWVARIRSKYNNYATYYADSVKDRFTISRDDSKNTLYLQMNSLKTEDTAVYYCVRHGNFGNSYVSWFAYWGQGTLVTVSS VL: QAVVTQEPSLTVSPGGTVTLTCRSSTGAVTTSNYANWVQQKPGQAPRTLIYGTNKRAPWTPARFSGSLLGDKAALTLSGAQPEDEAEYYCALWYSNLWVFGGGTKLTVLG
0.088 | 0.098 | G03 (antibody, human IgG1, lambda, L234A L235A, V domains shown) VH: EVQLVESGGGLVQPGGSLKLSCAASGFTFNTYAMNWVRQASGKGLEWVARIRSKYNNYATYYADSVKDRFTISRDDSQSTAYLQMNSLKTEDTAVYYCVRHGNFGNSYVSWFAYWGQGTLVTVSS VL: QAVVTQEPSLTVSPGGTVTLTCRSSTGAVTTSNYANWFQQKPGQAPRTLIGGTNKRAPWTPARFSGSLLGGKAALTLSGAQPEDEAEYYCALWYSNLWVFGGGTKLTVLG
0.077 | 0.09 | F12 (antibody, human IgG1, lambda, L234A L235A, V domains shown) VH: EVQLVESGGGLVQPGGSLKLSCAASGFTFNTYAMNWVRQASGKGLEWVARIRSKYNNYATYYADSVKDRFTISRDDSKNTLYLQMNSLKTEDTAVYYCVRHGNFGNSYVSWFAYWGQGTLVTVSS VL: QAVVTQEPSLTVSPGGTVTLTCRSSTGAVTTSNYANWVQQKPGQAPRTLIGGTNKRAPWTPARFSGSLLGDKAALTLSGAQPEDEAEYYCALWYSNLWVFGGGTKLTVLG
0.069 | 0.146 | G02 (antibody, human IgG1, lambda, L234A L235A, V domains shown) VH: EVQLVESGGGLVQPGGSLKLSCAASGFTFNTYAMNWVRQASGKGLEWVARIRSKYNNYATYYADSVKDRFTISRDDSQSTAYLQMNSLKTEDTAVYYCVRHGNFGNSYVSWFAYWGQGTLVTVSS VL: QAVVTQEPSLTVSPGGTVTLTCRSSTGAVTTSNYANWFQQKPGQAPRTLIYGTNKRAPWTPARFSGSLLGDKAALTLSGAQPEDEAEYYCALWYSNLWVFGGGTKLTVLG
0.069 | 0.084 | F04 (antibody, human IgG1, lambda, L234A L235A, V domains shown) VH: EVQLVESGGGLVQPGGSLKLSCAASGFTFNTYAMNWVRQASGKGLEWVARIRSKYNNYATYYADSVKDRFTISRDDSKNTLYLQMNSLKTEDTAVYYCVRHGNFGNSYVSWFAYWGQGTLVTVSS VL: QAVVTQEPSLTVSPGGTVTLTCRSSTGAVTTSNYANWFQQKPGQAPRTLIGGTNKRAPWTPARFSGSLLGDKAALTLSGAQPEDEAEYYCALWYSNLWVFGGGTKLTVLG
0.076 | 0.093 | F02 (antibody, human IgG1, lambda, L234A L235A, V domains shown) VH: EVQLVESGGGLVQPGGSLKLSCAASGFTFNTYAMNWVRQASGKGLEWVARIRSKYNNYATYYADSVKDRFTISRDDSKNTLYLQMNSLKTEDTAVYYCVRHGNFGNSYVSWFAYWGQGTLVTVSS VL: QAVVTQEPSLTVSPGGTVTLTCRSSTGAVTTSNYANWFQQKPGQAPRTLIYGTNKRAPWTPARFSGSLLGDKAALTLSGAQPEDEAEYYCALWYSNLWVFGGGTKLTVLG
0.104 | 0.138 | F11 (antibody, human IgG1, lambda, L234A L235A, V domains shown) VH: EVQLVESGGGLVQPGGSLKLSCAASGFTFNTYAMNWVRQASGKGLEWVARIRSKYNNYATYYADSVKDRFTISRDDSKNTLYLQMNSLKTEDTAVYYCVRHGNFGNSYVSWFAYWGQGTLVTVSS VL: QAVVTQEPSLTVSPGGTVTLTCRSSTGAVTTSNYANWVQQKPGQAPRTLIGGTNKRAPWTPARFSGSLLGGKAALTLSGAQPEDEAEYYCALWYSNLWVFGGGTKLTVLG
0.151 | 0.192 | F13 (antibody, human IgG1, lambda, L234A L235A, V domains shown) VH: EVQLVESGGGLVQPGGSLKLSCAASGFTFNTYAMNWVRQASGKGLEWVARIRSKYNNYATYYADSVKDRFTISRDDSKNTLYLQMNSLKTEDTAVYYCVRHGNFGNSYVSWFAYWGQGTLVTVSS VL: QAVVTQEPSLTVSPGGTVTLTCRSSTGAVTTSNYANWVQQKPGQAPRGLIYGTNKRAPWTPARFSGSLLGGKAALTLSGAQPEDEAEYYCALWYSNLWVFGGGTKLTVLG
0.066 | 0.097 | A10 (antibody, human IgG1, lambda, L234A L235A, V domains shown) VH: EVQLVESGGGLVQPGGSLKLSCAASGFTFNTYAMNWVRQASGKGLEWVGRIRSKYNNYATYYADSVKDRFTISRDDSKNTAYLQMNSLKTEDTAVYYCVRHGNFGNSYVSWFAYWGQGTLVTVSS VL: QAVVTQEPSLTVSPGGTVTLTCRSSTGAVTTSNYANWVQQKPGQAPRTLIYGTNKRAPWTPARFSGSLLGDKAALTLSGAQPEDEAEYYCALWYSNLWVFGGGTKLTVLG
0.05 | 0.092 | A09 (antibody, human IgG1, lambda, L234A L235A, V domains shown) VH: EVQLVESGGGLVQPGGSLKLSCAASGFTFNTYAMNWVRQASGKGLEWVGRIRSKYNNYATYYADSVKDRFTISRDDSKNTAYLQMNSLKTEDTAVYYCVRHGNFGNSYVSWFAYWGQGTLVTVSS VL: QAVVTQEPSLTVSPGGTVTLTCRSSTGAVTTSNYANWVQQKPGQAPRTLIYGTNKRAPWTPARFSGSLLGGKAALTLSGAQPEDEAEYYCALWYSNLWVFGGGTKLTVLG
0.096 | 0.113 | G01 (antibody, human IgG1, lambda, L234A L235A, V domains shown) VH: EVQLVESGGGLVQPGGSLKLSCAASGFTFNTYAMNWVRQASGKGLEWVARIRSKYNNYATYYADSVKDRFTISRDDSQSTAYLQMNSLKTEDTAVYYCVRHGNFGNSYVSWFAYWGQGTLVTVSS VL: QAVVTQEPSLTVSPGGTVTLTCRSSTGAVTTSNYANWFQQKPGQAPRTLIYGTNKRAPWTPARFSGSLLGGKAALTLSGAQPEDEAEYYCALWYSNLWVFGGGTKLTVLG
0.063 | 0.129 | G04 (antibody, human IgG1, lambda, L234A L235A, V domains shown) VH: EVQLVESGGGLVQPGGSLKLSCAASGFTFNTYAMNWVRQASGKGLEWVARIRSKYNNYATYYADSVKDRFTISRDDSQSTAYLQMNSLKTEDTAVYYCVRHGNFGNSYVSWFAYWGQGTLVTVSS VL: QAVVTQEPSLTVSPGGTVTLTCRSSTGAVTTSNYANWFQQKPGQAPRTLIGGTNKRAPWTPARFSGSLLGDKAALTLSGAQPEDEAEYYCALWYSNLWVFGGGTKLTVLG
0.1 | 0.114 | F14 (antibody, human IgG1, lambda, L234A L235A, V domains shown) VH: EVQLVESGGGLVQPGGSLKLSCAASGFTFNTYAMNWVRQASGKGLEWVARIRSKYNNYATYYADSVKDRFTISRDDSKNTLYLQMNSLKTEDTAVYYCVRHGNFGNSYVSWFAYWGQGTLVTVSS VL: QAVVTQEPSLTVSPGGTVTLTCRSSTGAVTTSNYANWVQQKPGQAPRGLIYGTNKRAPWTPARFSGSLLGDKAALTLSGAQPEDEAEYYCALWYSNLWVFGGGTKLTVLG
